Where two headings read alike, the source gives them in different places.
Tests used:
murine pro-myostatin [1] = target: T1, murine pro-myostatin (mouse, UniProt O08689 25-376); experiment: cell-based or functional assay
murine pro-myostatin [2] = target: T1, murine pro-myostatin; experiment: ForteBio Octet BLI kinetics
proGDF11 = proGDF11 (UniProt O95390 25-407, limits assumed); experiment: ForteBio Octet QKe BLI, antibody 50 µg/mL; flagged * non-specific binding, fitted to a poor response
Procedure: Binding affinities of antibody candidates were determined using the FortéBio Octet QKe dip and read label free assay system utilizing bio-layer interferometry. Antigens were immobilized to biosensors (streptavidin-coated biosensors for proGDF8, proGDF11 and proActivin; direct amine coupling for all others) in each experiment and the antibodies/constructs were presented in solution at high concentration (50 μg/mL) to measure binding interactions.

murine pro-myostatin [3] = target: T1, murine pro-myostatin; experiment: ForteBio Octet BLI kinetics; remark: listed apart in the source
murine pro-myostatin [4] = target: T1, murine pro-myostatin; experiment: cell-based or functional assay; remark: listed apart in the source
murine pro-myostatin [5] = target: T1, murine pro-myostatin; experiment: cell-based or functional assay; remark: listed apart in the source
murine pro-myostatin [6] = target: T1, murine pro-myostatin; experiment: ForteBio Octet BLI kinetics; remark: listed apart in the source
murine pro-myostatin [7] = target: T1, murine pro-myostatin; experiment: cell-based or functional assay; remark: listed apart in the source
murine latent myostatin = target: T2, murine latent myostatin (mouse, UniProt O08689 25-267; O08689 268-376, Non-covalent complex of prodomain and growth factor; disulfide-linked homodimer, one copy of each chain is given.); experiment: ForteBio BLI
T2 construct: recombinant in BLI, endogenous in serum immunoprecipitation; also called Murine Latent GDF8; copies: 2 + 2

murine latent GDF11 = murine latent GDF11 (murine, UniProt Q9Z1W4 21-296; Q9Z1W4 297-405, limits assumed); experiment: ForteBio BLI
[8] = target: murine pro + latent GDF11 (murine, UniProt Q9Z1W4 21-405, limits assumed); experiment: ForteBio BLI
murine pro-myostatin [9] = target: T1, murine pro-myostatin; experiment: ForteBio BLI
[10] = target: T3, mature myostatin growth factor (UniProt O14793 267-375, limits assumed); experiment: ForteBio BLI
T3 construct: mature; Amine-coupled to the sensor tips; also called Mature GDF8

[11] = target: T4, pro-myostatin (proGDF8), species not stated in the experiment (UniProt O14793 24-375, limits assumed); experiment: ForteBio Octet, biotinylated antigen on streptavidin sensor; IgG1
T4 construct: also called pro/latent-myostatin

human pro-myostatin = human pro-myostatin (human, UniProt O14793 24-375); experiment: cell-based or functional assay
murine pro-myostatin [12] = target: T1, murine pro-myostatin; experiment: cell-based or functional assay; remark: listed apart in the source

Sequence of murine pro + latent GDF11 (Q9Z1W4 21-405 limits assumed): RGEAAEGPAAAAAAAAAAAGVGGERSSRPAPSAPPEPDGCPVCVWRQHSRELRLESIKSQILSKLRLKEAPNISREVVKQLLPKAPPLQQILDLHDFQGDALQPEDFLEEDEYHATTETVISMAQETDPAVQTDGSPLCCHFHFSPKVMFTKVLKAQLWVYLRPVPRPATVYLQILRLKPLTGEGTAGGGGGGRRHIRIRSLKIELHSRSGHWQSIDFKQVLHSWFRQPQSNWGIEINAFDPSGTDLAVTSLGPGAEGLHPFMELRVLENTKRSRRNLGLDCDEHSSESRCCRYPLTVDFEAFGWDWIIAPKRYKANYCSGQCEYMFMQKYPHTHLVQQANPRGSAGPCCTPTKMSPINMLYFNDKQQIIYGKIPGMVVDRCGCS
Sequence of murine latent GDF11 (Q9Z1W4 21-296 limits assumed, chain 1 of 2): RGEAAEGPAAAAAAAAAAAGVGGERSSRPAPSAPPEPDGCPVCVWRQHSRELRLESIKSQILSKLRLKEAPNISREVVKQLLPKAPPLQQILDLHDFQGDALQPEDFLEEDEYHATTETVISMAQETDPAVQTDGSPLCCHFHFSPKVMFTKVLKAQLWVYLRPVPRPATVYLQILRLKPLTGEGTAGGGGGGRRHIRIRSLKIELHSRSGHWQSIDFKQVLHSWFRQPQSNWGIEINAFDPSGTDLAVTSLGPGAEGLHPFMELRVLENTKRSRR
Sequence of murine latent GDF11 (Q9Z1W4 297-405 limits assumed, chain 2 of 2): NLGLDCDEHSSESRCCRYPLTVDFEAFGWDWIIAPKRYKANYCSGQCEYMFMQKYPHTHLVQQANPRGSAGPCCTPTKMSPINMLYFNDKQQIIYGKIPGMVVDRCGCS
Sequence of proGDF11 (O95390 25-407 limits assumed): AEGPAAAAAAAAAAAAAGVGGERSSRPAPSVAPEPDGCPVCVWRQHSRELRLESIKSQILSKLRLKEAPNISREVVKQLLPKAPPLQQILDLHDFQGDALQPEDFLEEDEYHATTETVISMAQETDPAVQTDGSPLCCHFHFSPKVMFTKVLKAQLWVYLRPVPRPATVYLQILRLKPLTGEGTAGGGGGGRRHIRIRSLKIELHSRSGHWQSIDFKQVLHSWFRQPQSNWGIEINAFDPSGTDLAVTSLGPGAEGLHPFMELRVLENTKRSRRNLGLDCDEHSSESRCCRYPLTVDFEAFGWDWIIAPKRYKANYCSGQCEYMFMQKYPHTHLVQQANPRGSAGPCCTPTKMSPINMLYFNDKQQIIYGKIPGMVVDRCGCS

Binder | EC50 Activation Assay (murine pro-myostatin [7]) [nM] | Kd (murine latent myostatin) [nM] | binding result (murine latent GDF11) | binding result [8] | Kd (murine pro-myostatin [9]) [nM] | binding result [10] | Kd [11] [nM] | Human proGDF8 IC50, Reporter assay (human pro-myostatin) [nM] | also measured
Ab1 (parental), IgG4 (S228P)/lambda (antibody, V domains shown, Fully human IgG4 (S228P), lambda; also called parental Ab1 IgG4; copies: 2 + 2) VH: QIQLVQSGGGVVQPGRSLRLSCAASGFTFSSYGMHWVRQAPGKGLEWVAVISYDGSNKYYADSVKGRFTISRDNSKNTLYLQMNSLRAEDTAVYYCARDLLVRFLEWSHYYGMDVWGQGTTVTVSS VL: not shown | – | – | – | – | – | – | – | – | Activity Assay - 293T cells EC50 (murine pro-myostatin [1]): 839 nM; Kd (murine pro-myostatin [2]): 11 nM; koff (murine pro-myostatin [2]): 0.00262 s⁻¹; kon (murine pro-myostatin [2]): 237000 M⁻¹ s⁻¹
Ab4 (germlined Ab3), IgG4 (S228P)/lambda (antibody, V domains shown, Human IgG4/lambda) VH: QVQLVESGGGVVQPGRSLRLSCAASGFAFSSYGMHWVRQAPGKGLEWVAVISYDGSIKYYADSVKGRFTISRDNSKNTLYLQMNSLRAEDTAVYYCARDLLVRFLEWSHKYGMDVWGQGTTVTVSS VL: not shown | – | – | – | – | – | – | – | – | Kd (proGDF11): 125 nM; Kd (murine pro-myostatin [3]): 1.08 nM; koff (murine pro-myostatin [3]): 0.000272 s⁻¹; kon (murine pro-myostatin [3]): 253000 M⁻¹ s⁻¹; Activity Assay - 293T cells EC50 (murine pro-myostatin [4]): 447 nM
Ab6 (germlined Ab5), IgG4 (S228P)/lambda (antibody, V domains shown, Human IgG4/lambda) VH: QVQLVESGGGVVQPGRSLRLSCAASGFAFSSYGMHWVRQAPGKGLEWVAVISYDGNNKYYADSVKGRFTISRDNSKNTLYLQMNSLRAEDTAVYYCARDLLVRFLEWSHKYGMDVWGQGTTVTVSS VL: not shown | – | – | – | – | – | – | – | – | Kd (proGDF11): 60.7 nM; Activity Assay - 293T cells EC50 (murine pro-myostatin [5]): 307 nM; Kd (murine pro-myostatin [6]): 0.954 nM; koff (murine pro-myostatin [6]): 0.000281 s⁻¹; kon (murine pro-myostatin [6]): 294000 M⁻¹ s⁻¹
Ab14 (antibody, V domains shown, Fully human antibody) VH: EVQLLESRAEVKKPGESLKISCKGSGYSFTSYWIGWVRQMPGKGPEWMGIIYPGDSDTRYSPSFQGQVTISADKSISTAYLQWSSLKASDTAMYYCARLVYGGYDEPGYYFDYWGQGTLVTVSS VL: not shown | – | 18.8 | no binding (tested: 200 nM) | no binding (tested: 200 nM) | – | – | – | – | Kd [10]: 2.1 nM
Ab12 (antibody, V domains shown, Fully human antibody) VH: QVQLVQSGGGLIQPGGSLRLSCAASGFTVSSYSMNWVRQAPGKGLEWVSYISSSGSTIYYADSVKGRFTISRDNAKNSLYLQMNSLRAEDTALYYCAKVGTAAAGDAFDIWGQGTMVTVSS VL: not shown | – | 1.9 | no binding (tested: 200 nM) | no binding (tested: 200 nM) | 3.9 | no binding (tested: 333 nM) | – | – | –

Continued, in another order:

EC50 Activation Assay (murine pro-myostatin [7]) [nM] | Kd (murine latent myostatin) [nM] | binding result (murine latent GDF11) | binding result [8] | Kd (murine pro-myostatin [9]) [nM] | binding result [10] | Kd [11] [nM] | Human proGDF8 IC50, Reporter assay (human pro-myostatin) [nM] | Binder | also measured
1380 | 1.8 | no binding (tested: 200 nM) | no binding (tested: 200 nM) | 1.6 | no binding (tested: 333 nM) | – | – | Ab11 (antibody, V domains shown, Fully human antibody) VH: QLQLQQSGGGLVKPGGSLRLSCAASGFTFSSYSMNWVRQAPGKGLEWVSSISSSSSYIYYADSVKGRFTISRDNAKNSLYLQMNSLRAEDTAVYYCVRDRHSLGDFDYWGQGTLVTVSS VL: SSELTQPSVSVSPGQTATITCSGDKLGDKYASWYQQKPGQSPVLVIYQDTKRPSGIPARFSGSNSGNTATLTISGTQAMDEAAYYCQAWDSTTVVFGGGTKLTVLG | –
– | – | no binding (tested: 200 nM) | no binding (tested: 200 nM) | 4.3 | no binding (tested: 333 nM) | – | – | Ab13 (antibody, V domains shown, Fully human antibody) VH: EVQLVQSGGGLVQPGRSLRLSCAASGFTFDDYAMHWVRQAPGKGLEWVSGISWNSGSIGYADSVKGRFTISRDNAKNSLYLQMNSLRAEDTALYYCAKDTSNGGYSSSSFDYWGQGTLVTVSS VL: QSALTQPASVSGSPGQSITISCTGTSSDVGGYNYVSWYQQHPGTAPKLMIYDVSYRPSGVSNRFSGSKSGNTASLTISGLQAEDEADYYCSSYTSSSTLVFGTGTKVTVLG | –
373 | 4.2 | no binding (tested: 200 nM) | no binding (tested: 200 nM) | 3.7 | no binding (tested: 333 nM) | 300 | 772 | Ab10 (antibody, V domains shown, also called anti-pro/latent GDF8 antibody, Ab10) VH: EVQLVQSGGGVVQSGRSLRLSCVASGFSFSNYGMHWVRQAPGKGLEWLAFIWYDGSNKWYADSVKGRFTISRDNSKNALYLQMNSLRAEDTAVYYCARDRYSSSWGGGFDYWGQGTVLTVSS VL: NFMLTQPHSVSESPGRTVTIPCSGRGGSIASDSVQWYQQRPGSAPTTIIYEDNQRPSGVPDRFSGSVDSSSNSASLTISGLRTEDEADYYCQSYDASSLWVFGGKTKLTVLG | –
1600 | – | no binding (tested: 200 nM) | no binding (tested: 200 nM) | 1.4 | no binding (tested: 333 nM) | 500 | 6040 | Ab8 (antibody, V domains shown) VH: QIQLVQSGAEVKKPGASVKVSCKASGYTFTSYGISWVRQAPGQGLEWMGWISAYNGNTNYAQKLQGRVTMTTDTSTSTAYMELSSLRSEDTAVYYCARVGFYDYVWGSYPYDAFDIWGQGTMVTVSS VL: EIVMTQSPGTLSLSPGERATLSCRASQSVSSNYLAWYQQKPGQAPRLLIYDASNRATGIPARFSGSGSGTDFTLTISSLEPEDFALYYCQQYGTSPLTFGGGTKLEIKR | Murine proGDF8 IC50, Reporter assay (murine pro-myostatin [12]): 139000 nM
– | 7.8 | no binding (tested: 200 nM) | no binding (tested: 200 nM) | 8.5 | no binding (tested: 333 nM) | 22000 | 12200 | Ab9 (antibody, V domains shown) VH: QVQLVQSGAEVKKPGSSVKVSCKASGGTFSSYAISWVRQAPGQGLEWMGGIIPIFGTANYAQKFQGRVTITADESTSTAYMELSSLRSEDTAVYYCANHGLMDDSSGYYLSNAFDIWGQGTMVTVSS VL: not shown | Murine proGDF8 IC50, Reporter assay (murine pro-myostatin [12]): 19900 nM
555 | 28.4 | no binding (tested: 200 nM) | no binding (tested: 200 nM) | 32.9 | no binding (tested: 333 nM) | 28000 | 983 | Ab7 (antibody, V domains shown) VH: QVQLQQSGAEVKKPGASVKVSCKASGYTFTSYYMHWVRQAPGQGLEWMGIINPSGGSTSYAQKFQGRVTMTRDTSTSTVYMELSSLRSEDTAVYYCARESLIRFLEDPQQGGMDVWGQGTTVTVSS VL: QSALTQPASVSGSPGQSLTISCTGTSSDIGGYNYVSWYQQHPGKAPKLIIYDVTDRPSGVSGRFSGSKSGNTASLTISGLQTEDEAEYFCNSWTRSNNYIFGGGTKLTVLG | Murine proGDF8 IC50, Reporter assay (murine pro-myostatin [12]): 1680 nM
– | 11 | no binding (tested: 200 nM) | no binding (tested: 200 nM) | 4.7 | – | – | – | Ab15 (antibody, V domains shown, Fully human antibody) VH: EVQLVQSGGGLVQPGRSLRLSCAASGFTFDDYAMHWVRQAPGKGLEWVSGISWNSGSIGYADSVKGRFTISRDNSKNTLYLQMNSLRAEDTAVYYCAKVDGLEYSSGHNFDYWGQGTLVTVSS VL: QSALTQPPSVSGSPGQSVTISCTGSSSDVGYYDHVSWYQHHPGRAPKVIIYDVTKRPSGVPDRFSGSKSGNTASLTISGLQAEDEADYYCSSYAGSYTWVFGGGTELTVLG | Kd [10]: 9.5 nM
